The domain aggregation screens of Martell et al. (2025)

experiment: soluble fraction after stress (log2 fold change); higher = more stays soluble; pooled small domains, quantitative proteomics; conditions: stress: pH 4
Procedure, shortened: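 Aggregation propensity is estimated from the fold change in each domain's soluble amount after acid stress. Pooled small-domain libraries were stressed at pH 4, and higher log2 values mean more stayed soluble.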

“HMDYIITHYPDNKRFETQVDGVVAFVQYRLSGDKLDIIHTIVPPAIGGRGIAAALVKYAYDYAIENGMK” and “HMDDFTEVLLQYLKDHDGYSSIHDKTDAETIYNTFGVSKKTFKKAVGDLYKKRLIVLEEEGIRLLG” are within 0.2 log units of each other in “soluble fraction (log2)” value: -0.666 for the first, -0.586 for the second.

Going from “HMSQRINLNSASIEDMQSLDISNEKIDSIIDYRNRYGNIHNIYELLKIPGITIGDIHSIRNAVTVEIPH” to “HMEDQFWQNRAEMALASARRAGRIVTYAEMADAADIPAPQRIHKLTLWLEATMRQDHASGQPLRAALV”, the “soluble fraction (log2)” value rises from -0.472 to -0.0778.

First: HMNQKTQMTKQILAESLKKLMLHHSFEKITIKDITDAAGFIRPTFYNHFKDKYDLVEWIFTEEI
Second: HMYDNTVTKYVNSLSVYVRKGPSTSDEIVTSLIKDTDVTVVGENGEWYKIKYKEFEGYIYKNLLSDNKT
The “soluble fraction (log2)” value of the first is lower: -0.336 for the first, -0.125 for the second.

First: HMSNEITVPDLSGMSLEELETILSDRSLSYEIIDSIYNSTAKKGTVSSQDPLPDAKVKSGRTIYITVVSKL
Second: HMNEIYHQIKVDNVSDDDISLFQYSGIEFDHADYRRGEYIEFAISNRDLSILNNLGYEYQVVHH
The “soluble fraction (log2)” value of the first is lower: -1.31 for the first, -1.07 for the second.

“HMKRITAVISQKKGRDYYYIIVSYYLSNGKRVQRWIKTEFPINGNNKRKLEQKRIEVLQEWQDKLV” and “HMNTKHVFIIEQDDEKKRLDIFLVEKLQDSRSFLKKGIVEGWVKVNESVVKPNYKLKQKDQITVIIPP” are within 0.2 log units of each other in “soluble fraction (log2)” value: -0.486 for the first, -0.396 for the second.

Compared with “HMQDREKNIAEGRDIIEHEFMRLGISLSRYDLDGLASKLNVKAGDDVLAGVGAGDIRVSQIISQLG”, “HMGHKKLTIELQDEIIVLPKELEKYNLTVSDDKTSLIYTYKSRGEKTGITDLLRDIKDAGLRLKDLITEQ” is higher in “soluble fraction (log2)” value: -0.747 for the first, -0.0229 for the second.

Going from “HMDNNFIQSLYPIAIGISKNQLDPWDLINGWVEYYLKNKEKYINHPNLKAVAVLKMKGLLIDHFRKS” to “HMSNRIDKIKLNHWLNIRKTSLDVLNNLLSKHLNHKINFENLENLDEQAIEKISEVLSIPKNKLLINDDVP”, the “soluble fraction (log2)” value rises from -1.96 to -0.226.

Compared with “HMAMDVKEVLLPGVGLRYEFDNSDGDRIGVIAKRSGDFEVVRYTAADRDAAQPMFRLTDEEADALAQILGA”, “HMTTMNSADLIKELEKAGWTLRGVKGSHHIYTHPARGGHLSVPHPKKDLGAGLARQLRKQAGL” is higher in “soluble fraction (log2)” value: -0.487 for the first, 0.346 for the second.

“HMKKTFSKSSVMEAIFRDIPNITIPNAHEVYTLIKNISVMNKRKSITSEDIEKAYDALGLTP” and “HMGNGDTNERIATLMQILAKQESIINQYGLENPVVSPQMYVRTLKKVVELSGFKDASSYFADIPDGWKA” are within 0.2 log units of each other in “soluble fraction (log2)” value: 0.145 for the first, 0.0699 for the second.

First: HMNEPMITEVKRINYGSIKEIAKNLDVFKGKNGTVIIDERTNTLILTDLSENIEKMLWSIEITD
Second: HMKHSLNHLGLWLLPELSRRDIQLREFAHLLGTTSQGLSDLLRGQRFSSHTLAQWQLRFQEKLDEIDQAS
The “soluble fraction (log2)” value of the first is lower: -0.855 for the first, -0.236 for the second.

First: HMTIGIGKSLDFNTSGEKAYRIYNFKGAYVGTFKASDMTSLKNEVQKSNVKAGAYMVRSLDGHVNRLIEIK
Second: HMEVLPLHQVKLKYAEADTILIALKSAQSMLSPRGQLLADNRSQQIFVYDDEAHTATLIEAIKHLDQPL
The “soluble fraction (log2)” value of the first is higher: ≥ 0.43 for the first, -0.32 for the second.

First: HMTSHPTHTILDGKVHVFMRDGSPFWWGGFHFKGKYLRTSTKQKNLDSAKTIAQQWYFQKQTEIASGE
Second: HMKGRPTTAIITDERTNLRSGPGATNKTIAQAGAGEKLAIIDEKDGWYQVSRAGINGWVAGWVIDVAW
The “soluble fraction (log2)” value of the first is higher: -0.0801 for the first, -0.945 for the second.

First: HMVIVGGDVIVHYVDTEGKKISDDVVKSGNVGEDYSTDQKTILGYRFKEVQGNTSGKFTDKTQVVTYIYT
Second: HMDFDLIAIFEEQFARALSPIEINIIKEWKNSNYSDDMIVKALKEAVKSQVFNFRYIERILINWSQNG
The “soluble fraction (log2)” value of the first is higher: 0.179 for the first, -1.64 for the second.

Going from “HMSYQFKIKNNAAVEVTVSEKNNLLGSTYGDKATVAAGMEKNVTFYTDKPDVVVDTNGNFTITVHDKEIII” to “HMGETAFRYALPLDQGEALKRSHVIRQSISPDDALATRVTVLEDVLDQTLRQPVQAGEVLLEDHFTR”, the “soluble fraction (log2)” value falls from -0.221 to -0.682.

First: HMVLVGERRQKILEVVSSGKAVTVEELSRILHVSPSTVRRDLRFLESRGLLYRTHGGAMPPV
Second: HMRKSNADALDGKTGIVKEEIKTGGYGYVGIDGDMWRSISESGEAIPAGTKVVVISHESIILTVKPA
The “soluble fraction (log2)” value of the first is lower: -0.0726 for the first, ≥ 0.43 for the second.

Compared with “HMESRMTYLQKTKLATENLDAKLIDHQQWVAEVLGEDYRGVYSDEYLRRAAKVFAIFVNNLDD”, “HMGLQLTPVRRRVLEILLHEHRALGAYDILDKLRSEGLGSQPPVAYRALDFLVTHGFAHKIERLNAF” is higher in “soluble fraction (log2)” value: -1.41 for the first, -0.0897 for the second.

Going from “HMRNMTDYLTIVRAVYGGLSQRQAATTYHVSRNTVSLLIRHAKNQGWLTVEDLSRADAAAFSPA” to “HMKKGATVSGVIVEKTKKSLIIDLGAKTEGVVADKEFEFAIDFVKELKKGDEVKAIVISTDNDKGQVVLSL”, the “soluble fraction (log2)” value rises from -0.0738 to ≥ 0.43.

“HMGSIRDIIVQYLSKFDDPQPAAKIVEYVQQYRDTTESSIRSSMGSGDQFVQFSGGLYGLKDKTYAAWYSI” and “HMYNPAYDAEIKVILELARHGYWEEARERADELLKAAPDDTGVKRIQTWVRQQEQRMREQAIEDSIRA” are within 0.2 log units of each other in “soluble fraction (log2)” value: -0.383 for the first, -0.206 for the second.

Going from “HMDMPLIGTAIRGWGIISPAQQETLIKMSILTVEDLAAINDEGIKRIGMGGLDLKNKAKAWLLQLK” to “HMPVSVAEQKQILAEALQERGHATFRELIENADNRMIVVGRFLALLELYRDGTVRFEQERALGELTIHWEE”, the “soluble fraction (log2)” value falls from -0.00985 to -1.22.

Compared with “HMEVGVSGTVFNTDSLNVRKGPGTNFDTVTSLKRGSVVEVFEQSAVDGTVWGRIANGWVNMQYVSL”, “HMKDTNENLMKMLALLIHAAKIDENYSDEEKELIVNFAEMSSKENLNREQILSIIKSAEEYE” is lower in “soluble fraction (log2)” value: -0.0681 for the first, -0.673 for the second.

First: HMKFIPPSLEEARAYFVEKGSSEPEAEKFVNHFDSIGWKVGRARTPMKKWKSAANNWIANNREWNQ
Second: HMRGYGDRIRILRERAGITIEQLAERLGVAPYFIRRTELSEVYPTKPYIEALADVLNIDASYLARHI
The “soluble fraction (log2)” value of the first is higher: -0.166 for the first, -0.972 for the second.

“HMNSLQLGSRGPTVSALQAKLNTMLVPSPRLVADGSFGPKTAQAVKAFQQMKRLVADGVVGPKTAAALGLS” and “HMDIPGITAVKPQAAFYMFPKIDVKKFNIVNDEKFALDLLQDKKILIVQGSGFNWKQPDHFRVV” are within 0.2 log units of each other in “soluble fraction (log2)” value: 0.281 for the first, 0.115 for the second.

“HMSRVFSPSELEIRHAQDVFQALEEAKRQGKGAVSLNGKMIDAPIVARAKLVLEAAAAIYGED” and “HMADWTETELAALRRAYASGTTRVSYDGKSVDYGSAEDLLSRIRTLQGAASDVAADAVAAVDA” are within 0.2 log units of each other in “soluble fraction (log2)” value: -0.202 for the first, -0.153 for the second.

First: HMTYSAWIEKAYSELEKKGITEAELSDALDKRGINLEDLKLMGPDEAVKYQSEVEGVVLELSKSKE
Second: HMQQDGSSSLGENMLNQELQARGVVPSEIPQEVWERVIQEAGKKSKREIYADIGLGRSLAAGFAQRLAA
The “soluble fraction (log2)” value of the first is lower: -0.319 for the first, -0.0576 for the second.

“HMSDGTVYGSDGVIKVNLPQSGMLRIYATDGTTLVNRWQAAGIDTISMPRGLYIVRFDNQVWKVVV” and “HMIEEIAVPEILGMQEEEAKAKIEGLGLVFNVTDRVKSNEYEKGEVMYQSVGPDDTTVKSGYPINVTISEG” are within 0.2 log units of each other in “soluble fraction (log2)” value: 0.00982 for the first, -0.162 for the second.

First: HMAEVGDFTLAELIKVLFNEAGVLKAPVELRNDNTGGLQYRVGAYTDSETGWETIASIADLKGA
Second: HMVDITPDLIRTLLERFGEYGVTKEHIEARIQRHIESILPAQVVQLRKTYNSLKDGMSQPSDWFDI
The “soluble fraction (log2)” value of the first is lower: -1.74 for the first, -1.43 for the second.

First: HMNSTEQQTERFLATLTSLGGNAGNQRLQEALGWQGSTYQRIKQHLLDEGRIRTGRGRGGSVALSEATAT
Second: HMGREVVVPNLAGIEKEVALDLLKKNRLGGMITGTRFSSDFPAGQVIQQMPEAGSRVKVGKQVKLVLSEG
The “soluble fraction (log2)” value of the first is higher: ≥ 0.43 for the first, 0.334 for the second.

Going from “HMAPAGGITRQDLFAWGLMGGEGSREKRQQLKKSLGLPSHLGTSGFLDALNLIATRDQVEALLHK” to “HMGDSVLNDKLNTLAGLDEERFKWVLASLNPNNSYSTHSDKMSALMWLVSYFNDEADLKETVPPLPI”, the “soluble fraction (log2)” value falls from ≥ 0.43 to -0.325.

First: HMGAARVTPLYNLRLREGPSTATARLDVVPRGTTLEVRAWDETGDWAQVEYRGQIGWIAAWLAEVEGEAP
Second: HMSPAVEDYLEQIHNLIAQKGYARVVDIAGNLKISQASVTNMIQRMDADGLVVYERYRGVVLTETGRK
The “soluble fraction (log2)” value of the first is lower: -0.739 for the first, -0.456 for the second.

First: HMVSEASELTDTINKIGSLAQALVGANKLSKTDLVGIIKKYHTSANYNSITDIGVAKNILAELEAKN
Second: HMNTWVEIFRAEDQGQIRDASLVLLAVKVAHRVDMNSSSAPWSLMVPAQDQQRAHHELTTYWQENAH
The “soluble fraction (log2)” value of the first is higher: -0.264 for the first, -1.35 for the second.

Going from “HMNTIIHPIRLAYVDSGSIKSMAEQAEIDVKILTSEANSQIFWAIGDEKQIDRLYNLISQVDIIQNK” to “HMSEQVTMIDVEGKTETEAKKALEDLGLKVEITYESADAAAGTVIGQDVKAGSTVSEGSRVTLTVSGQ”, the “soluble fraction (log2)” value rises from -1.42 to -0.211.

Compared with “HMARLQEVVVRVPVEDGQTLAAIYREAEVIERADEGTGVLLTVRIPAPLLGRLRRLEGVHVQP”, “HMSEVSEILTRARFFAGVKTDAELSTLLKIPYGTLIGWKTRKNIPESRIAQMALILGIRRDTLIPA” is higher in “soluble fraction (log2)” value: -0.348 for the first, -0.11 for the second.

“HMATYETEVISGVNLRSAPNTSASVYRLLSKGEDIHVIQKVNDYWLKVQTKDGKIGYISASSKYTNYIA” and “HMGIAKLLTEQEYKIALLAAERRTNAMIAEEMNLTENTVKTHLKHIFDKVGIAGNAKNKRHLLADMMNSER” are within 0.2 log units of each other in “soluble fraction (log2)” value: -0.132 for the first, 0.0405 for the second.

Going from “HMQSKSEINELPKSIHMAFSPKNFELFIDNLKINEIDFSNWKGELNTIQERVDGQRQIWIQDPQGYWIEIN” to “HMIIYGLNPVKDFINLFPNKISTLFISKNKLSDSEMKSVVNINTVYVSDAELKRITGTTKHQSLAAEID”, the “soluble fraction (log2)” value falls from -0.335 to -0.721.

Going from “HMKETLSINSTDFEVRRSSRRKRISVGFDTGTETFFIAAPTKLAGTDILRILGPQISRLMDRLT” to “HMILKNVTSDLANKRLDKVASILFQTYSRTQIKKWILEGRVLVNGEISNPKDHVHENDEIEINPI”, the “soluble fraction (log2)” value rises from -0.808 to ≥ 0.43.

Compared with “HMFEYDEEEYEKLGPNADLTIKSMTDWGQSLVRKGVWSESDFEEFKIMGGTAQGLRALQKVRSYY”, “HMEAIYKKNKNLIHTVIRDNFPFLIDTADYEDAFQEGSIGLIRAIDRFDDGLEYKFSSYAYTAIRNQIA” is higher in “soluble fraction (log2)” value: -1.25 for the first, -0.165 for the second.

Going from “HMKRLQEQAYDYLKELILSGKMIENEIYSETKLASEIGISRTPIRDALQRLSQDGFIDIIPSKGFRIH” to “HMTPVFGEEETVLQAAVRGIISDTDQWTMEAEAKSMLNQLGFSDYEEKMAHMSGGQKKRVALVNALLTP”, the “soluble fraction (log2)” value rises from -0.889 to -0.555.

With “HMEIDFDKINSIFNDANKLYEEGDYFEANNLYKNIVSSNIISKDLYYNLGLSYAKIGSNGYAILWYERALN” the “soluble fraction (log2)” value was -0.215.
